This passage reports Kd results from patent publication US20130266567A1 (published 2013).

Assay [1] concerns the target T1, Human serum albumin (human, UniProt P02768 25-609).
T1 construct: coupled to CM5 BIAcore chip; also called human SA; HSA
As to the kind of experiment: SPR, BIAcore T100, equilibrium KD. For orientation: SPR reads the build-up and loss of mass on a sensor chip optically.
Method: (§1) Cross-reactivity of the AlbudAbs™ (ie, anti-serum albumin dAbs) was determined against human, Cynomolgus monkey (cyno), rat and mouse serum albumin using surface plasmon resonance (SPR). In this case, Biacore™ was used. Biacore™ 2000/3000 was used for the supernatant screens and determination of binding kinetic all of dAbs described herein. Biacore™ T100 was used for the determination of cross-reactivity of lead Vk and VH Albudabs to a wider range of species' SAs (12 in total). Protein samples were run on the T100 BIAcore as described for the BIAcore2000/3000 experiments. […] Where appropriate, a kinetic Langmuir 1:1 fitting model was used.

Assay [2] deals with T2, Cynomolgus serum albumin (Cynomolgus monkey, UniProt A2V9Z4 25-608).
T2 construct: mature; purified native protein; coupled to CM5 BIAcore chip; also called cyno SA; CSA
The experiment in a line: SPR, BIAcore T100, equilibrium KD.
Method: as §1

Assay [3] has as its target T3, Rat serum albumin (rat, UniProt P02770 25-608).
T3 construct: coupled to CM5 BIAcore chip; also called rat SA; RSA
The experiment in a line: SPR, BIAcore T100, equilibrium KD.
Method: as §1

Assay [4] concerns the target T4, Mouse serum albumin (mouse, UniProt P07724 25-608).
T4 construct: mature; bought purified protein; coupled to CM5 BIAcore chip; also called mouse SA; MSA
The experiment in a line: SPR, BIAcore T100, equilibrium KD.
Method: as §1

The target in the next assay is Marmoset serum albumin (marmoset). The experiment in a line: SPR, BIAcore T100, equilibrium KD.
Another assay concerns the target Dog serum albumin (dog, UniProt P49822 25-608). The experiment in a line: SPR, BIAcore T100, equilibrium KD.
The target in a further assay is Ferret serum albumin (ferret). As to the kind of experiment: SPR, BIAcore T100, equilibrium KD.
A further assay concerns the target Pig serum albumin (pig, UniProt P08835 25-607). As to the kind of experiment: SPR, BIAcore T100, equilibrium KD.
The target of another assay is Mini Pig serum albumin (mini pig). The experiment in a line: SPR, BIAcore T100, equilibrium KD.
In the next assay the target is Rabbit serum albumin (rabbit, UniProt P49065 25-608). The experiment in a line: SPR, BIAcore T100, equilibrium KD.
The next assay addresses Sheep serum albumin (sheep, UniProt P14639 25-607). The experiment in a line: SPR, BIAcore T100, equilibrium KD.
Assay [5] deals with T4, Mouse serum albumin. As to the kind of experiment: SPR, BIAcore 3000, serum albumin coupled to CM5 chip.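 Also: Cross-reactivity of anti-serum albumin domain antibodies measured against human, cynomolgus monkey, rat and mouse serum albumin, binding kinetics giving Kd.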
Method: as §1
The target in assay [6] is T1, Human serum albumin. The assay is described as above.
Method: as §1
The target of assay [7] is T2, Cynomolgus serum albumin. Described as above.
Method: as §1
Assay [8] concerns the target T3, Rat serum albumin. Described as above.
Method: as §1
The target in a further assay is Guinea Pig serum albumin (guinea pig). The experiment in a line: SPR, BIAcore T100, equilibrium KD.
The target of assay [9] is T1, Human serum albumin. The experiment in a line: SPR, BIAcore 3000, serum albumin coupled to CM5 chip; first of two independent measurements on different protein batches.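 Also: Cross-reactivity of anti-serum albumin domain antibodies measured against human, cynomolgus monkey, rat and mouse serum albumin, binding kinetics giving Kd.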
Method: as §1
The target in assay [10] is T1, Human serum albumin. The experiment in a line: SPR, BIAcore 3000, serum albumin coupled to CM5 chip; second of two independent measurements; marked with an unexplained caret.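 Also: Cross-reactivity of anti-serum albumin domain antibodies measured against human, cynomolgus monkey, rat and mouse serum albumin, binding kinetics giving Kd.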
Method: as §1
For assay [11], the target named is T3, Rat serum albumin. The experiment in a line: SPR, BIAcore 3000, serum albumin coupled to CM5 chip; last of the independent measurements on different protein batches.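 Also: Cross-reactivity of anti-serum albumin domain antibodies measured against human, cynomolgus monkey, rat and mouse serum albumin, binding kinetics giving Kd.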

“And” between values parts separate entries of the source, which are not always exact repeats. Identical values can stand only once.

A word on the Kd: it is the concentration at which binding is half-saturated. Read a low Kd as tighter binding.

Method for Dog serum albumin: as §1
Method for Ferret serum albumin: as §1
Method for Guinea Pig serum albumin: as §1
Method for Marmoset serum albumin: as §1
Method for Mini Pig serum albumin: as §1
Method for Rabbit serum albumin: as §1
Method for Sheep serum albumin: as §1

B1: DOM7r-92-100 (VHH)
VHH: EVQLLESGGGLVQPGGSLRLSCAASGFTFDTSSMLWVRQAPGKGLEWVSVIHQSGTPTYYADSVKGRFTISRDNSKNTLYLQMNSLRAEDTAVYYCAKFPSSRMKFDYWGQGTLVTVSS
notes: VH immunoglobulin single variable domain (dAb, AlbudAb), not a camelid VHH; tested with a myc tag; MALLS: dimer 10%, monomer 90%; also called DOM7r-92-100 myc; not shown: myc tag
As to B1, the dissociation constant Kd in the assay with Human serum albumin [1] came out at 3.56 nM; with Cynomolgus serum albumin [2], 10.7 nM; with Rat serum albumin [3] it was 54.3 nM; with Mouse serum albumin [4] it was 61.5 nM; in the assay with Marmoset serum albumin, 7.37 nM; in the assay with Dog serum albumin, 450 nM. Also, the Kd is 317 nM with Ferret serum albumin; 191 nM with Pig serum albumin; 308 nM with Mini Pig serum albumin; 136 nM in the assay with Rabbit serum albumin; 569 nM with Sheep serum albumin; 33 nM and 90 nM with Mouse serum albumin [5].

B2: DOM7r-92-101 (VHH)
VHH: EVQLLESGGGLVQPGGSLRLSCAASGFTFDTSSMLWVRQAPGKGLEWVSVIHQSGTPTYYADSVKGRFTISRDNSKNTLYLQMNSLRAEDTAVYYCAKFPSRKMKFDYRGQGTLVTVSS
notes: VH immunoglobulin single variable domain (dAb, AlbudAb), not a camelid VHH; tested with a myc tag; not shown: myc tag
For B2, the dissociation constant (Kd) in the assay with Human serum albumin [6] was 15 nM and 8 nM; with Cynomolgus serum albumin [7] it was 120 nM; with Rat serum albumin [8], 23 nM and 16 nM; in the assay with Mouse serum albumin [5], 56 nM.

B3: DOM7r-92-103 (VHH)
VHH: EVQLLESGGGLVQPGGSLRLSCAASGFTFDTSSMLWVRQAPGKGLEWVSVIHQSGTPTYYADSVKGRFTISRDNSKNTLYLQMNSLRAEDTAVYYCAKFPSEGMNFDYWGQGTLVTVSS
notes: as for B2
Regarding B3, the Kd with Human serum albumin [6] is 160 nM and 123 nM; with Cynomolgus serum albumin [7], 770 nM.

B4: DOM7r-92-4 (VHH)
VHH: EVQLLESGGGLVQPGGSLRLSCAASGFTFDTSSMLWVRQAPGKGLEWVSVIHQSGTPTYYADSVKGRFTISRDNSKNTLYLQMNSLRAEDTAVYYCAKFPSTHGKFDYWGQGTLVTVSS
notes: VH immunoglobulin single variable domain (dAb, AlbudAb), not a camelid VHH; tested with a myc tag; also called 7r92-4 (Parent); not shown: myc tag
Take B4: the Kd in the assay with Human serum albumin [6] was 260 nM and 420 nM.

B5: DOM7r-92-102 (VHH)
VHH: EVQLLESGGGLVQPGGSLRLSCAASGFTFDTSSMLWVRQAPGKGLEWVSVIHQSGTPTYYADSVKGRFTISRDNSKNTLYLQMNSLRAEDTAVYYCAKFPSSQFRFDYWGQGTLVTVSS
notes: as for B2
B5: the Kd with Human serum albumin [6] was 28 nM; with Cynomolgus serum albumin [7], 32 nM; with Rat serum albumin [8] it was 100 nM; with Mouse serum albumin [5], 280 nM.

B6: DOM7r-31-14 (VHH)
VHH: EVQLLESGGGLVQPGGSLRLSCTASGFTFRHYRMGWVRQAPGKGLEWVSWIRPDGTFTYYADSVKGRFTISRDNSKNTLYLQMNSLRAEDTAVYYCAKSYMADRFDYWGQGTLVTVSS
notes: VH immunoglobulin single variable domain (dAb, AlbudAb), not a camelid VHH; tested with a myc tag; also called 7r31-14 (Parent); not shown: myc tag
Regarding B6, the equilibrium dissociation constant (Kd) in the assay with Mouse serum albumin [5] is 6 nM and 12 nM and 14.2 nM.

B7: DOM7r-31-103 (VHH)
VHH: EVQLLESGGGLVQPGGSLRLSCTASGFTFRHYRMGWVRQAPGKGLEWVSWIRPDGTFTYYADSVKGRFTISRDNSKNTLYLQMNSLRAEDAAVYYCAKSYMSGTFDYWGQGTLVTVSS
notes: as for B2
Consider B7, for which the Kd in the assay with Human serum albumin [6] was 200 nM and 95 nM; with Rat serum albumin [8], 40 nM.

B8: DOM7r-31-101 (VHH)
VHH: EVQLLESGGGLVQPGGSLRLSCTASGFTFRHYRMGWVRQAPGKGLEWVSWIRPDGTFTYYADSVKGRFTISRDNSKNTLYLQMNSLRAEDTAVYYCAKSYQAGTFDYWGQGTLVTVSS
notes: as for B2
On to B8, for which the Kd in the assay with Human serum albumin [6] was 367 nM and 240 nM.

B9: DOM7r-31-100 (VHH)
VHH: EVQLLEPGGGLVQPGGSLRLSCTASGFTFRHYRMGWVRQAPGKGLEWVSWIRPDGTFTYYADSVKGRFTISRDNSKNTLYLQMNSLRAEDTAVYYCAKSYLSGTFDYWGQGTLVTVSS
notes: as for B2
For B9, the dissociation constant (Kd) was 260 nM and 287 nM in the assay with Human serum albumin [6]; 40 nM and 41 nM in the assay with Rat serum albumin [8]; 5.4 nM and 12.7 nM with Mouse serum albumin [5].

B10: DOM7r-31-102 (VHH)
VHH: EVQLLESGGGLVQPGGSLRLSCTASGFTFRHYRMGWVRQAPGKGLEWVSWIRPDGTFTYYADSVKGRFTISRDNSKNTLYLQMNSLRAEDTAVYYCAKSYHADKFDYWGQGTLVTVSS
notes: as for B2
For B10, the Kd is 158 nM and 100 nM with Human serum albumin [6]; 67 nM and 30 nM in the assay with Rat serum albumin [8].

B11: DOM7r-31-104 (VHH)
VHH: EVQLLESGGGLVQPGGSLRLSCTASGFTFRHYRMGWVRQAPGKGLEWVSWIRPDGTFTYYADSVKGRFTISRDNSKNTLYLQMNSLRAEDTAVYYCAKSYMAGTFDYWGQGTLVTVSS
notes: as for B2
Consider B11, for which the Kd is 25.9 nM in the assay with Human serum albumin [1]; 6.09 nM with Rat serum albumin [3]; 59.5 nM in the assay with Mouse serum albumin [4]; 4900 nM with Marmoset serum albumin; 8.26 nM in the assay with Dog serum albumin; 13.9 nM with Ferret serum albumin. Moreover, the dissociation constant Kd in the assay with Pig serum albumin is 415 nM; with Mini Pig serum albumin, 412 nM; with Guinea Pig serum albumin it was 1630 nM; with Rabbit serum albumin, 1990 nM; with Rat serum albumin [8], 11.9 nM and 7.6 nM; in the assay with Human serum albumin [9], 89.1 nM. Further, binding in the assay with Human serum albumin [10] was put at a Kd of 81 nM.

B12: DOM7r-36-2 (VHH)
VHH: EVQLLESGGGLVQPGGSLRLSCAASGFTFNHYTMGWVRQAPGKGREWVSLIHPSGTVTYYADSVKGRFTISRDNSKNTLYLQMNSLRAEDTAVYYCAKWSSRAFDYWGQGTLVTVSS
notes: VH immunoglobulin single variable domain (dAb, AlbudAb), not a camelid VHH; tested with a myc tag; also called 7r36-2 (Parent); not shown: myc tag
For B12, the Kd with Human serum albumin [6] is 190 nM and 360 nM and 305 nM and 385 nM; with Cynomolgus serum albumin [7], 800 nM and 815 nM and 628 nM and 1500 nM; in the assay with Rat serum albumin [8] it was 467 nM and 330 nM and 244 nM and 229 nM.

B13: DOM7r-36-101 (VHH)
VHH: EVQLLESGGGLVQPGGSLRLSCAASGFTFNHYTMGWVRQAPGKGREWVSLIHPSGTVTYYADSVKGRFTISRDNSKNTLYLQMNSLRAEDTAVYYCAKWFLKSFDYWGQGTLVTVSS
notes: as for B2
As to B13, the Kd with Human serum albumin [6] was determined as 86 nM; with Cynomolgus serum albumin [7] it was 72 nM; with Rat serum albumin [8], 183 nM.

B14: DOM7r-36-102 (VHH)
VHH: EVQLLESGGGLVQPGGSLRLSCAASGFTFNHYTMGWVRQAPGKGREWVSLIHPSGTVTYYADSVKGRFTISRDNSKNTLYLQMNSLRAEDTAVYYCAKWFYRNFDYWGQGTLVTVSS
notes: as for B2
As to B14, the Kd in the assay with Cynomolgus serum albumin [7] is 430 nM; with Rat serum albumin [8] it was 100 nM; with Mouse serum albumin [5], 250 nM.

B15: DOM7r-36-106 (VHH)
VHH: EVQLLESGGGLVQPGGSLRLSCAASGFTFNHYTMGWVRQAPGKGREWVSLIHPSGTVTYYADSVKGRFTISRDNSKNTLYLQMNSLRAEDTAVYYCAKFRGRGFDYWGQGTLVTVSS
notes: as for B2
Consider B15, for which the Kd is 209 nM and 124 nM in the assay with Human serum albumin [6]; 840 nM and 1100 nM with Cynomolgus serum albumin [7]; 75 nM in the assay with Rat serum albumin [8]; 113 nM and 73 nM with Mouse serum albumin [5]; 42 nM with Rat serum albumin [11].

B16: DOM7r-36-103 (VHH)
VHH: EVQLLESGGGLVQPGGSLRLSCAASGFTFNHYTMGWVRQAPGKGREWVSLIHPSGTVTYYADSVKGRFTTSRDNSKNTLYLQMNSLRAEDTAVYYCAKWDRKLFDHWGQGTLVTVSS
notes: as for B2
Take B16: the Kd in the assay with Human serum albumin [6] was 62 nM and 65 nM; with Cynomolgus serum albumin [7], 94 nM; with Rat serum albumin [8] it was 100 nM and 57 nM; with Mouse serum albumin [5], 270 nM.

B17: DOM7r-36-108 (VHH)
VHH: EVQLLESGGGLVQPGGSLRLSCAASGFTFNHYTMGWVRQAPGKGREWVSLIHPSGTVTYYADSVKGRFTTSRDNSKNTLYLQMNSLRAEDTAVYYCAKLEGRSFDYWGQGTLVTVSS
notes: as for B2
As for B17, the dissociation constant (Kd) was 82 nM and 67 nM with Human serum albumin [6]; 265 nM with Cynomolgus serum albumin [7]; 37.6 nM with Mouse serum albumin [5].

B18: DOM7r-36-100 (VHH)
VHH: EVQLLESGGGLVQPGGSLRLSCAASGFTFNHYTMGWVRQAPGKGREWVSLIHPSGTVTYYADSVKGRFTISRDNSKNTLYLQMNSLRAEDTAVYYCAKWERRTFDYWGQGTLVTVSS
notes: as for B2
For B18, the Kd was 74 nM and 100 nM and 35 nM with Human serum albumin [6]; 87 nM and 230 nM in the assay with Cynomolgus serum albumin [7]; 105 nM and 70 nM with Rat serum albumin [8]; 100 nM with Mouse serum albumin [5].

B19: DOM7r-36-105 (VHH)
VHH: EVQLLESGGGLVQPGGSLRLSCAASGFTFNHYTMGWVRQAPGKGREWVSLIHPSGTVTYYADSVKGRFTISRDNSKNTLYLQMNSLRAEDTAVYYCAKLGTKVFDYWGQGTLVTVSS
notes: as for B2
As to B19, the Kd in the assay with Human serum albumin [6] is 284 nM and 313 nM; in the assay with Rat serum albumin [8], 170 nM.
